Like-named read-outs stand apart in the source and are kept apart here.
How the values were obtained:
mouse Galectin-9 (Gal9) [1] = target: T1, mouse Galectin-9 (Gal9) (mouse, UniProt O08573-2 2-322, limits assumed); experiment: solution equilibrium assay (SEA), mouse Gal9
T1 construct: also called mouse Gal9

mouse Galectin-9 (Gal9) [2] = target: T1, mouse Galectin-9 (Gal9); experiment: solution equilibrium assay (SEA), mouse Gal9; remark: listed apart in the source
[3] = target: T2, Gal9 as added in the T-cell apoptosis and TIM-3 dimerization assays (species not stated); experiment: cell-based or functional assay
human Galectin-9 (Gal9) [4] = target: T3, human Galectin-9 (Gal9) (human, UniProt O00182-2 1-323, limits assumed); experiment: solution equilibrium assay (SEA), human Gal9
T3 construct: also called human Gal9

human Galectin-9 (Gal9) [5] = target: T3, human Galectin-9 (Gal9); experiment: SPR
human Galectin-9 (Gal9) [6] = target: T3, human Galectin-9 (Gal9); experiment: solution equilibrium assay (SEA), human Gal9; remark: listed apart in the source
human Galectin-9 (Gal9) [7] = target: T3, human Galectin-9 (Gal9); experiment: SPR; remark: listed apart in the source
[8] = target: T2, Gal9 as added in the T-cell apoptosis …; experiment: cell-based or functional assay; remark: listed apart in the source
[9] = target: T2, Gal9 as added in the T-cell apoptosis …; experiment: cell-based or functional assay; remark: listed apart in the source
[10] = target: T2, Gal9 as added in the T-cell apoptosis …; experiment: cell-based or functional assay; remark: listed apart in the source

T3 sequence (O00182 other isoform, or with tags, fused parts or gaps limits assumed): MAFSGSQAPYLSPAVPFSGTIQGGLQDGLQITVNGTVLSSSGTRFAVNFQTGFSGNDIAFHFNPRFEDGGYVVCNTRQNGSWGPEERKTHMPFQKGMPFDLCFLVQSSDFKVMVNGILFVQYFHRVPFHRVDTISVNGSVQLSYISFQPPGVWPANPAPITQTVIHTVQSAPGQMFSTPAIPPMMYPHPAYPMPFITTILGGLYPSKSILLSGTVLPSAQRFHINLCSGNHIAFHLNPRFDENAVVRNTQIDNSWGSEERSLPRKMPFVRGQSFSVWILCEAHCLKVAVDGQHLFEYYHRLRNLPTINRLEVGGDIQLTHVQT
T2 sequence (O00182 whole entry): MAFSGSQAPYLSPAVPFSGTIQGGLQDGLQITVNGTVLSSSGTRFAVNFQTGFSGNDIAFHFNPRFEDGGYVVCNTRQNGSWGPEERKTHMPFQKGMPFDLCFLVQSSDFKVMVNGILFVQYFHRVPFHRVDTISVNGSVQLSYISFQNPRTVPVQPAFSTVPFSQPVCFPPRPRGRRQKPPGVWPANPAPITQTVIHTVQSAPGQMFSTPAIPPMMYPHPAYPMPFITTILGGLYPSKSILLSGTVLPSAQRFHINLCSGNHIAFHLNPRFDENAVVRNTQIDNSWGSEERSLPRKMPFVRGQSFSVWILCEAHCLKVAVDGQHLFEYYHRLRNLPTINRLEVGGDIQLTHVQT
T1 sequence (O08573 other isoform, or with tags, fused parts or gaps limits assumed): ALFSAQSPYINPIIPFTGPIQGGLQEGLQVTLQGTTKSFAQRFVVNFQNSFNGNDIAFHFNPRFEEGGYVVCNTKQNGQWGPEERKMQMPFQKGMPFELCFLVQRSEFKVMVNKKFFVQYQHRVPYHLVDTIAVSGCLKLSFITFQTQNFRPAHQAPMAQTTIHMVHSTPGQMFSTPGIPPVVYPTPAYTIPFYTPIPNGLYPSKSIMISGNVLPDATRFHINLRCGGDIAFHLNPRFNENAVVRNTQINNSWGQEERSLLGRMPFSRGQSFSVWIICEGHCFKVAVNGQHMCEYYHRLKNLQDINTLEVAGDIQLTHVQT

Binder	Kd (mouse Galectin-9 (Gal9) [1]) [nM]	Kd (mouse Galectin-9 (Gal9) [2]) [nM]	IC50 of reducing Gal9-induced CD4+ T cell apoptosis [3] [nM]	Kd (human Galectin-9 (Gal9) [4]) [nM]	Kd (human Galectin-9 (Gal9) [5]) [nM]	koff (human Galectin-9 (Gal9) [5]) [s⁻¹]	kon (human Galectin-9 (Gal9) [5]) [M⁻¹ s⁻¹]	Kd (human Galectin-9 (Gal9) [6]) [nM]	Kd (human Galectin-9 (Gal9) [7]) [nM]	koff (human Galectin-9 (Gal9) [7]) [s⁻¹]	kon (human Galectin-9 (Gal9) [7]) [M⁻¹ s⁻¹]	IC50 (read off the curve), inhibition of Gal9-induced CD4+ T cell apoptosis [8] [nM]	IC50, inhibition of Gal9-induced CD4+ T cell apoptosis (% AnnexinV+PI+ cells) [8] [nM]	IC50, inhibition of Gal9-induced CD8+ T cell apoptosis (% AnnexinV+PI+ cells) [9] [nM]	IC50 (read off the curve), inhibition of Gal9-induced TIM-3 dimerization [10] [nM]	IC50, inhibition of Gal9-induced TIM-3 dimerization (RLU, enzyme fragment complementation) [10] [nM]
antibody A (Ab A), HFB9-2hz11, parental humanized anti-Gal9 antibody (antibody, V domains shown, also called antibody Ab A) VH: QVQLVQSGAEVKKPGASVKVSCKASGYTFTEYTIHWVRQAPGQGLEWMGWFYPGSGSTEYAQKFQGRVTMTADTSISTAYMELSRLRSDDTAVYFCERHGGYDGFDYWGQGTTVTVSS VL: not shown	49	49	18.7	3.1	7.18	0.0099	1.4e+06	3.1	4.9	0.00077	160000	–	–	–	–	–
antibody 001 (Ab 001), affinity matured anti-Gal9 antibody (antibody, V domains shown, Full HC/LC entries; they may hold a signal peptide) VH: QVQLVQSGAEVKKPGASVKVSCKASGYEFTEYTIHWVRQAPGQGLEWMGWFYPGSGSTWYAQKFQGRVTMTADTSISTAYMELSRLRSDDTAVYFCERHGGYDGFDYWGQGTTVTVSS VL: not shown	–	–	1.9	–	–	–	–	–	–	–	–	~6	6.1	1.34	~20	25
antibody 003 (Ab 003), affinity matured anti-Gal9 antibody (antibody, V domains shown, Full HC/LC entries; they may hold a signal peptide) VH: QVQLVQSGAEVKKPGASVKVSCKASGYPFSSYTIHWVRQAPGQGLEWMGWFYPGSGSTEYAQKFQGRVTMTADTSISTAYMELSRLRSDDTAVYFCEVHGGYDGFDYWGQGTTVTVSS VL: not shown	–	–	–	–	–	–	–	–	–	–	–	–	–	–	~20	–

Reference: patent US20260028407A1 (FIBROGEN, published 2026)
